{
  "source": "paper doi:10.1101/2024.03.05.583490",
  "target": "IR-Rluc (insulin receptor fused to Rluc) (UniProt P06213)",
  "experiment": "FRET or BRET",
  "data": [
    {"substance": "IGF1R-YPET F450A (from UniProt P08069 31-1367) (receptor)", "values": [
      {"measurement": "fold change in BRET50 against the wild type", "value": 2, "unit": "fold"}
    ]}
  ]
}
